What is called Kd is the constant that tells how readily two partners part at equilibrium. A low value points to tighter binding.

We go through one substance from article PMC10843048.

For one experiment, the target named is His+Ala+TIMP2 (human) (UniProt P16035). Nature of the experiment: SPR.
In experiment [1] the target is His+Ala+TIMP2Q186 (human). As to the kind of experiment: SPR. For orientation: In SPR one partner is held on a chip, and binding of the other changes the refractive index at the surface.

UniProt P16035, sequence (P16035 26-220): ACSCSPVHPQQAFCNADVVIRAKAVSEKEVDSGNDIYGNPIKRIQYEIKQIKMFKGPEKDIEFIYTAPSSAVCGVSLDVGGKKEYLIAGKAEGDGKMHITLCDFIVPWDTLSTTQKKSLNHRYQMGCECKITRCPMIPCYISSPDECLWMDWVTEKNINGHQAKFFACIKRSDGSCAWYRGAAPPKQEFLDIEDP

As to “Recombinant C-domain of MMP2 (C-MMP2) (domain or fragment)”, the equilibrium dissociation constant (Kd) with His+Ala+TIMP2 (human) was found to be 0.76 nM; in experiment [1], 1900 nM.
